Test results published in EP4635983A1 (Ymmunobio AG, dated 2025).
Where no end group is shown, it is not given here.

Experiments:
[1] = target: T1, peptide (mNPTXR) representing the mouse NPTXR epitope space (mouse, also: biotinylated, position not given here); assay: ELISA, biotinylated mNPTXR peptide captured by streptavidin, antibody titrated from 10 ug/ml, anti-human IgG Fc-HRP detection
T1 construct: Immobilized on the ELISA plate by streptavidin capture; also called Bio-mNPTXR; Strep + Bio-mNPTXR
T1 peptide: CESGLPRGLQDAGPRRDT

[2] = target: T2, recombinant human NPTXR (rhNPTXR; Ala24 to Ala500 of Acc no. #O95502) (human, UniProt O95502 24-500); assay: ELISA, rhNPTXR immobilized on plate, antibody titrated from 10 ug/ml, anti-human IgG Fc-HRP detection
T2 construct: range 24-500; Recombinant protein immobilized on the ELISA plate
T2 sequence (looked up): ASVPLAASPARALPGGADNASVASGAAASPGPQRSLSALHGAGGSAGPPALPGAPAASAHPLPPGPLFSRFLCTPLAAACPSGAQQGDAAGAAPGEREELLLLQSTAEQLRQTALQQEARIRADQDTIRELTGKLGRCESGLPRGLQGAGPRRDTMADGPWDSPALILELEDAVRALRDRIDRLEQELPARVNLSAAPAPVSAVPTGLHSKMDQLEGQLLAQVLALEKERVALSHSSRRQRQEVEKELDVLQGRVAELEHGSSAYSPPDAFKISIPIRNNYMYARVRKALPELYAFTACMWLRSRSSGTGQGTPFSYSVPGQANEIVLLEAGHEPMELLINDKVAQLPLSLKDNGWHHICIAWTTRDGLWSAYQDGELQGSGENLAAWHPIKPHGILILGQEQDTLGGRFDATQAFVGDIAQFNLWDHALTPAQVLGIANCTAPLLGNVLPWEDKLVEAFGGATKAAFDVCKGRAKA

B1: YB-800 (antibody, human IgG1, V domains shown)
VH: QVQLVQSGAEVKKPGASVKVSCKASGYTFTNYGMNWVRQAPGQRLEWMGWINTDIGEPTYSQKFQGRVTITRDTSASTAYMELSSLRSEDTAVYYCAREMDVWGQGTTVTVSS
VL: DIQMTQSPSSLSASVGDRVTITCRASQSISDYLHWYQQKPGKAPKLLIKYVSHSISGVPSRFSGSGSGTDFTLTISSLQPEDFATYYCLNGHSFPFTFGGGTKVEIK
- EC50 [1]: 0.0309 µg/mL
- EC50 [2]: 0.0271 µg/mL
